Here are results for one substance from paper PMC10183039.

This assay concerns the target Grp78 (rat (endogenous in hippocampus)) (UniProt P06761). Description: co-IP; primary antibody on Protein A/G magnetic beads in PBS with 0.3% Triton X-100; hippocampal tissue of 3-month-old male rats (WT; APP KO or SNCA KO for comparison) homogenized in RIPA lysis buffer; lysate with beads overnight at 4 °C; four washes with PBST; western blotting.

Chain of IP3R1, P29994 1-2750 (receptor) (P29994 whole entry): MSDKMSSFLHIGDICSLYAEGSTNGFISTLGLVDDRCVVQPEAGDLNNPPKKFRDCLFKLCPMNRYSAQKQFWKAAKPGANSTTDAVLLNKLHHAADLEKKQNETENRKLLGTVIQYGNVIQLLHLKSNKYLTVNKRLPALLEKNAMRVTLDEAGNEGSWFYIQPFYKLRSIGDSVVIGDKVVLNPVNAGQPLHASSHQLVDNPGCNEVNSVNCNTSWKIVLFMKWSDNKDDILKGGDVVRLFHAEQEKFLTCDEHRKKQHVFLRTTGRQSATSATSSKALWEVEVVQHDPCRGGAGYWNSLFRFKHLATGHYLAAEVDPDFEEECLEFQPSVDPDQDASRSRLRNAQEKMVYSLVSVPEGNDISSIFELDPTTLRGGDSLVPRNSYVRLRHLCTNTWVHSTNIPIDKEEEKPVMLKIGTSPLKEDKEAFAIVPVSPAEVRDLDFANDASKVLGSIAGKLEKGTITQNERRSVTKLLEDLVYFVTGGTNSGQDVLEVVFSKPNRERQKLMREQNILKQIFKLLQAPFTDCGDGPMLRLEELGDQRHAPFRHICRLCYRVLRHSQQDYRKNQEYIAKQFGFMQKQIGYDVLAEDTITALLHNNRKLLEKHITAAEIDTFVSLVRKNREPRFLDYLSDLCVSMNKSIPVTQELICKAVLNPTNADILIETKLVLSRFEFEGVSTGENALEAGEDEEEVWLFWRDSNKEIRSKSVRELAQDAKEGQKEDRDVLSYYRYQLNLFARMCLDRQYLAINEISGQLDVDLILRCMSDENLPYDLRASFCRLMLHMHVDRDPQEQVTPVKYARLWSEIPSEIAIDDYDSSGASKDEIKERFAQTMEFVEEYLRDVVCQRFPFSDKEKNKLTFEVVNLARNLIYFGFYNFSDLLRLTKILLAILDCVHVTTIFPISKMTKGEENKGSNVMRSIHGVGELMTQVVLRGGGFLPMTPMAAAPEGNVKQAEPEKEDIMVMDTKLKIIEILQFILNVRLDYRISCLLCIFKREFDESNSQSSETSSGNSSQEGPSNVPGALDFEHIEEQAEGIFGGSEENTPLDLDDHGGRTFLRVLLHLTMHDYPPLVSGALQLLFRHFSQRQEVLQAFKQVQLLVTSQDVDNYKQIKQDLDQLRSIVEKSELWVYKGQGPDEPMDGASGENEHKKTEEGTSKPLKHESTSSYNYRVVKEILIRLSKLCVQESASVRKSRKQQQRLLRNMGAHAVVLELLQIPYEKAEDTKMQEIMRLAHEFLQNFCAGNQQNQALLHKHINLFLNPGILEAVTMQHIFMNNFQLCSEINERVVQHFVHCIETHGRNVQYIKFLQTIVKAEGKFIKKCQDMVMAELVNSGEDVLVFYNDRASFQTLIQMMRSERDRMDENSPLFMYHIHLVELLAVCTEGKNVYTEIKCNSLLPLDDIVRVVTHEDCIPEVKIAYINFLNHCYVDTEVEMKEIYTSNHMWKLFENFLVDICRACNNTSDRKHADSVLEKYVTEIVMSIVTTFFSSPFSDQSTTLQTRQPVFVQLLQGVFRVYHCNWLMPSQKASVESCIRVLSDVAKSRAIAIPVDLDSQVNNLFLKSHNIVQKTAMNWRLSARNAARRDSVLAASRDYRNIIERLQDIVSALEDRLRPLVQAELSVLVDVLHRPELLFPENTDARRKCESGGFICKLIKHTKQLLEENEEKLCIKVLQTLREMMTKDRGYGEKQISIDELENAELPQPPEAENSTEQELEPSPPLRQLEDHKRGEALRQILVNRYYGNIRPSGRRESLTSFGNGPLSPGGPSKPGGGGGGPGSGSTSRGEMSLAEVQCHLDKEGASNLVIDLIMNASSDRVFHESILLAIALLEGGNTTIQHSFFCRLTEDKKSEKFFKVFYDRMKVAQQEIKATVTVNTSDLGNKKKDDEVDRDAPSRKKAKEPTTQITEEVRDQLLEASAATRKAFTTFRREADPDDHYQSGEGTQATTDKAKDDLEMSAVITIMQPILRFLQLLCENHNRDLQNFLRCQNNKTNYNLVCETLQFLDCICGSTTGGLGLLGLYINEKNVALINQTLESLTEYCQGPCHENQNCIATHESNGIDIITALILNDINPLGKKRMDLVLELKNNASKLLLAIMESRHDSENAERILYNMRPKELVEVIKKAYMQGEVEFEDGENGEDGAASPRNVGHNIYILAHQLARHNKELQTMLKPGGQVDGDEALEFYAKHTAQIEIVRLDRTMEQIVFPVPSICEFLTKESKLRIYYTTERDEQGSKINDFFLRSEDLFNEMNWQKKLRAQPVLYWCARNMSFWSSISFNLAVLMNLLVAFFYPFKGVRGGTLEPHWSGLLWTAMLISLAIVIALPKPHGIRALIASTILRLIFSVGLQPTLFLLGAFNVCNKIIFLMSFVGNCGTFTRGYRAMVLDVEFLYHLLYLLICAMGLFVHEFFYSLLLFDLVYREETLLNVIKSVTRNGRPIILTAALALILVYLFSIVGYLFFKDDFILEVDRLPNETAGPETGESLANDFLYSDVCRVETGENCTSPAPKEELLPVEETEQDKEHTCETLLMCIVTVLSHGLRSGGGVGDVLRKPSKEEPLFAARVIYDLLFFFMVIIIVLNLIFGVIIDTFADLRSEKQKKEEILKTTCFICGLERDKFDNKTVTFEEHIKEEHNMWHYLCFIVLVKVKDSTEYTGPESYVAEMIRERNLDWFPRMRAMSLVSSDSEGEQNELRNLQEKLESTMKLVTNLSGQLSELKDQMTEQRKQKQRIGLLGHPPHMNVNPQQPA
Chain of Grp78 (rat (endogenous in hippocampus)) (P06761 19-654): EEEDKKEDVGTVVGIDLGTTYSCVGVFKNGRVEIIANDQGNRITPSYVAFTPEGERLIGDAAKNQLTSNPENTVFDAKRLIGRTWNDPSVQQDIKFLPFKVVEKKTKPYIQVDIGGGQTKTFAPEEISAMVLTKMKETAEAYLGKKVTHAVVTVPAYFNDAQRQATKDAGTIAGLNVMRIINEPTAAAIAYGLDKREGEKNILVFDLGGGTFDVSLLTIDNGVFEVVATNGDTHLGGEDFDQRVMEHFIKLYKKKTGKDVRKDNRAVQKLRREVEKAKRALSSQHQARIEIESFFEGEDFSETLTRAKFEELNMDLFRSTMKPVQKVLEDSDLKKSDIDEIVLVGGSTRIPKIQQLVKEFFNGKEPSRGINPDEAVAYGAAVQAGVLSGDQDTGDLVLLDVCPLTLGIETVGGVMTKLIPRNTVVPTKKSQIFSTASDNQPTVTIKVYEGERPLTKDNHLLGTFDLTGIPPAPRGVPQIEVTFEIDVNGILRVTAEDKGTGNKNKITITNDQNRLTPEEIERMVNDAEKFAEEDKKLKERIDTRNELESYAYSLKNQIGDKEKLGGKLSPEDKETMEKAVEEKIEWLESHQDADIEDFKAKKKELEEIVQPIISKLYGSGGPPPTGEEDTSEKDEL

On to IP3R1, P29994 1-2750 (receptor), for which the fold of IP3R1 co-immunoprecipitated with Grp78, APP KO lysate against WT lysate was 1.49 fold.
